In the RNAGym collection of RNA variant scans (doi:10.1073/pnas.2313332121):

B1: TPR t1 (parent)
chain: GACCAAUCUGCCCUCAGAGCUCGAGAACAUCUUCGGAUGCAGAGGAGGCAGGCUUCGGUGGCGCGAUAGCGCCAACGUCCUCAACCUCCAAUGCAUCCCACCACAUGAUGAUGCCUGAAGAGCCUUGGUUUUUUG

Variants of: B1
Assay: polymerase ribozyme fitness, log enrichment relative to wild type (log ratio); higher = more active; in vitro selection for triplet polymerase activity
Method in brief: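 Both subunits of a heterodimeric triplet polymerase ribozyme were given their own mutant library, built by PCR and transcribed. Each library was annealed with a biotinylated primer, the partner subunit and triplets, incubated frozen at −7 °C, and its extended constructs gel-excised, captured on streptavidin beads and amplified by RT-PCR, all in one round done in triplicate. Fitness is the logarithm of genotype enrichment relative to wild-type enrichment, with replicates averaged by inverse-variance weighting. That logarithm is base 2, and Illumina-sequenced genotypes needed ≥10 input reads and ≥1 read per output.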

Variant | polymerase ribozyme fitness (log ratio)
GACCAAUCUGCCCUCAGAGCUCGAGAACAUCUUCGGAUGCAGAGGAGGCAGGCUUCGGUGGUGCGAUAGCGCCAACGUCCUCAACCUCCACUGCAUCCCACCACAUGAUGAUGCCUGAAGAGCCUUGGUUUUUUG [C62U A91C] | -1.43
GACCAAUCUGCCCUCAGAGCUCGAGAACAUCUUCGGAUGCAGAGGAGGCAGGCUUCGGUGGUGCGAUAGCGCCAACGUCCUCAACCUCCAUUGCAUCCCACCACAUGAUGAUGCCUGAAAAGCCUUGGUUUUUUG [C62U A91U G120A] | -2.6
GACCAAUCUGCCCUCAGAGCUCGAGAACAUCUUCGGAUGCAGAGGAGGCAGGCUUCGGUGGUGCGAUAGCGCCAACGUCCUCAACCUCCAAUGCGCCCCACCACAUGAUGAUGCCUGAAGAGCCUUGGUUUUUUG [C62U A95G U96C] | -1.53
GACCAAUCUGCCCUCAGAGCUCGAGAACAUCUUCGGAUGCAGAGGAGGCAGGCUUCGGUGGUGCGAUAGCGCCAACGUCCUCAACCUCCAAUGCAUCCCCCCACAUGAUGACGCCUGAAGAGCCUUGGUUUUUUG [C62U A100C U112C] | -1.92
GACCAAUCUGCCCUCAGAGCUCGAGAACAUCUUCGGAUGCAGAGGAGGCAGGCUUCGGUGGUGUGAUAGCGCCAACGUCCUCAACCUCCAAUGCAUCCCACCACAUGAUGAUGCCUGAAGAGACUUGAUUUUUUG [C62U C64U C123A G128A] | -1.1
GACCAAUCUGCCCUCAGAGCUCGAGAACAUCUUCGGAUGCAGAGGAGGCAGGCUUCGGUGGUGCGAUAGAGCCAACGUCCUCAACCUCCAAUGGAUCCCACCACAUGAUGAUGCCUGAAGAGCCUUGGUUUUUUG [C62U C70A C94G] | -3.73
GACCAAUCUGCCCUCAGAGCUCGAGAACAUCUUCGGAUGCAGAGGAGGCAGGCUUCGGUGGUGCGAUAGUGCCAACGUCCUCAACCUCCAAUGCAUCCCACCACAUGAUGAUGCCUGAAGAGCCUUGGUUUUAUG [C62U C70U U133A] | 0.14
GACCAAUCUGCCCUCAGAGCUCGAGAACAUCUUCGGAUGCAGAGGAGGCAGGCUUCGGUGGUGCGAUAGCGGCAACGUCCUCAACCUCCAAUGAAUCCCACCACAUGAUGAUGCCUGAAGAGCCUUGGUUUUUUG [C62U C72G C94A] | -3.29
GACCAAUCUGCCCUCAGAGCUCGAGAACAUCUUCGGAUGCAGAGGAGGCAGGCUUCGGUGGUGCGAUAGCGCCAACGUCCUAAACCUCCAAUGCAUCCCACCACAUGAUGAUGCCUGAAGAGCCUUGGUUUUUUG [C62U C82A] | -1.44
GACCAAUCUGCCCUCAGAGCUCGAGAACAUCUUCGGAUGCAGAGGAGGCAGGCUUCGGUGGUGCGAUAGCGCCAACGUCCUCAAACUCCAAUGCAUCCCACCACAUGAUGAUGCCUGAAGAGCCUUGGUUUUUUG [C62U C85A] | -2.09
GACCAAUCUGCCCUCAGAGCUCGAGAACAUCUUCGGAUGCAGAGGAGGCAGGCUUCGGUGGUGCGAUAGCGCCAACGUCCUCAAACUCCAAUGCAUCCCAGCACAUGAUGAUGCCUGAAGAGCCUUGGUUUUUUG [C62U C85A C101G] | -3.99
GACCAAUCUGCCCUCAGAGCUCGAGAACAUCUUCGGAUGCAGAGGAGGCAGGCUUCGGUGGUGCGAUAGCGCCAACGUCCUCAAACUCCAAUGCAUCCCACCACAGGAUGAUGCCUGAAGAGGCUUGGUUUUUUG [C62U C85A U106G C123G] | -1.11
GACCAAUCUGCCCUCAGAGCUCGAGAACAUCUUCGGAUGCAGAGGAGGCAGGCUUCGGUGGUGCGAUAGCGCCAACGUCCUCAAUCUCCAAUGCAUCCCACCACAUGAUGAUGCCUGAAGAGACUUGGUUUUUUG [C62U C85U C123A] | -1.23
GACCAAUCUGCCCUCAGAGCUCGAGAACAUCUUCGGAUGCAGAGGAGGCAGGCUUCGGUGGUGCGAUAGCGCCAACGUCCUCAACUUCCAAUGCAUCCCUCCACAUGAUAAUGCCUGAAGAGCCUUGGGUUUUUG [C62U C86U A100U G110A U129G] | -4.42
GACCAAUCUGCCCUCAGAGCUCGAGAACAUCUUCGGAUGCAGAGGAGGCAGGCUUCGGUGGUGCGAUAGCGCCAACGUCCUCAACCUGCAAUGCAUCCCACCACAUGAUGAUGCCUGAAGAGCCUUGGUUUUUUG [C62U C88G] | -0.561
GACCAAUCUGCCCUCAGAGCUCGAGAACAUCUUCGGAUGCAGAGGAGGCAGGCUUCGGUGGUGCGAUAGCGCCAACGUCCUCAACCUCCAAUGCAUGCCACCACAUGAUGAUGCCUGAAGUGCCUUGGUUUUUUG [C62U C97G A121U] | -2.46
GACCAAUCUGCCCUCAGAGCUCGAGAACAUCUUCGGAUGCAGAGGAGGCAGGCUUCGGUGGUGCGAUAGCGCCAACGUCCUCAACCUCCAAUGCAUCACACCACAUGAUGAUGCCUGAAGAGCCUUGGUUUUUUG [C62U C98A] | -5.51
GACCAAUCUGCCCUCAGAGCUCGAGAACAUCUUCGGAUGCAGAGGAGGCAGGCUUCGGUGGUGCGAUAGCGCCAACGUCCUCAACCUCCAAUGCAUCGCACCACAUGAUGAUGCCUCAAGAGCCUUGAUUUUCUG [C62U C98G G117C G128A U133C] | -5.87
GACCAAUCUGCCCUCAGAGCUCGAGAACAUCUUCGGAUGCAGAGGAGGCAGGCUUCGGUGGUGCGAUAGCGCCAACGUCCUCAACCUCCAAUGCAUCCCAACACAUGAUGAUGCCUGAAGAGCCUUGGUUUUUUG [C62U C101A] | -0.746
GACCAAUCUGCCCUCAGAGCUCGAGAACAUCUUCGGAUGCAGAGGAGGCAGGCUUCGGUGGUGCGAUAGCGCCAACGUCCUCAACCUCCAAUGCAUCCCAGCACAUGAUGAUGCCUGAAGAGCCUUGGUUUUUUG [C62U C101G] | -1.35
GACCAAUCUGCCCUCAGAGCUCGAGAACAUCUUCGGAUGCAGAGGAGGCAGGCUUCGGUGGUGCGAUAGCGCCAACGUCCUCAACCUCCAAUGCAUCCCACCAAAUGAUGAUGCCUGAAGAGCCUUGGUUUUUUG [C62U C104A] | -1.29

Variant | polymerase ribozyme fitness (log ratio)
GACCAAUCUGCCCUCAGAGCUCGAGAACAUCUUCGGAUGCAGAGGAGGCAGGCUUCGGUGGUGCGAUAGCGCCAACGUCCUCAACCUCCAAUGCAUCCCACCACAUGAUGAUGACUGAAGAGCCUUGGUUUUUUG [C62U C114A] | -1.35
GACCAAUCUGCCCUCAGAGCUCGAGAACAUCUUCGGAUGCAGAGGAGGCAGGCUUCGGUGGUGCGAUAGCGCCAACGUCCUCAACCUCCAAUGCAUCCCACCACAUGAUGAUGCUUGAAGAGCCUUGGUUUUUUG [C62U C115U] | -1.22
GACCAAUCUGCCCUCAGAGCUCGAGAACAUCUUCGGAUGCAGAGGAGGCAGGCUUCGGUGGUCCGAUAGCGCCAACGUCCUCAACCUCCAAUGCAUCCCACCACAUGAUGAUGCCUGAAGAGCCUUGGUUUUUUG [C62U G63C] | -2.14
GACCAAUCUGCCCUCAGAGCUCGAGAACAUCUUCGGAUGCAGAGGAGGCAGGCUUCGGUGGUUCGAUAGCGCCAACGUCCUCAACCUCCAAUGCAUCCCAUCACAUGAUGAUGCCUGAAGAGCCUUGGUUUUUUA [C62U G63U C101U G135A] | -2.36
GACCAAUCUGCCCUCAGAGCUCGAGAACAUCUUCGGAUGCAGAGGAGGCAGGCUUCGGUGGUUCGAUAGCGCCAACGGCCGCAACCUCCAAUGCAUCCCACCACAUGAUGAUGCCUGAAGAGCCUUGGUUUUUUG [C62U G63U U78G U81G] | -5.08
GACCAAUCUGCCCUCAGAGCUCGAGAACAUCUUCGGAUGCAGAGGAGGCAGGCUUCGGUGGUGCUAUAGCGCCAACGUCCUCAACCUCCAAUGCAUCCCACCACAUGAUGAUGCCUGAAGAGCCUUGGUUUUUUG [C62U G65U] | -3.73
GACCAAUCUGCCCUCAGAGCUCGAGAACAUCUUCGGAUGCAGAGGAGGCAGGCUUCGGUGGUGCGAUAGCCCCAACGUCCUCAACCUCCAAUGCAUCCCACCACAUGAUGAUGCCUGAAGAGCCUUGGUUGUUUG [C62U G71C U131G] | -0.416
GACCAAUCUGCCCUCAGAGCUCGAGAACAUCUUCGGAUGCAGAGGAGGCAGGCUUCGGUGGUGCGAUAGCGCCAACGUCCUCAACCUCCAAUCCAUCCCACCACAUGAUGAUGCCUGAAGAGCCUUGGUUUUUUG [C62U G93C] | -1.8
GACCAAUCUGCCCUCAGAGCUCGAGAACAUCUUCGGAUGCAGAGGAGGCAGGCUUCGGUGGUGCGAUAGCGCCAACGUCCUCAACCUCCAAUGCAUCCCACCACAUGAUCAUGCCUGAAGAGCUAUGGUUUUUUG [C62U G110C C124U U125A] | -5.16
GACCAAUCUGCCCUCAGAGCUCGAGAACAUCUUCGGAUGCAGAGGAGGCAGGCUUCGGUGGUGCGAUAGCGCCAACGUCCUCAACCUCCAAUGCAUCCCACCACAUGAUGAUCCCUGAAGAGCCUUCGUUUUUUG [C62U G113C G127C] | -3.6
GACCAAUCUGCCCUCAGAGCUCGAGAACAUCUUCGGAUGCAGAGGAGGCAGGCUUCGGUGGUGCGAUAGCGCCAACGUCCUCAACCUCCAAUGCAUCCCACCACAUGAUGAUGCCUAAAGAGCCUUGGUUUUUUG [C62U G117A] | -1.28
GACCAAUCUGCCCUCAGAGCUCGAGAACAUCUUCGGAUGCAGAGGAGGCAGGCUUCGGUGGUGCGAUAGCGCCAACGUCCUCAACCUCCAAUGCAUCCCACCACAUGAUGAUGCCUUAAGAGCCUUGGUUUUUUG [C62U G117U] | -2.6
GACCAAUCUGCCCUCAGAGCUCGAGAACAUCUUCGGAUGCAGAGGAGGCAGGCUUCGGUGGUGCGAUAGCGCCAACGCCCUGACCCUCCAAUACAUCCCACCACAUGAUGAUGCCUGAAGAGUCUUGGGUUUUUG [C62U U78C C82G A84C G93A C123U U129G] | -1.05
GACCAAUCUGCCCUCAGAGCUCGAGAACAUCUUCGGAUGCAGAGGAGGCAGGCUUCGGUGGUGCGAUAGCGCCAACGUCCCCAACCUCCAAUGCAUCCCAUCACAUGAUGAUGCCUGAAGAGCCUUGGUUUUUUG [C62U U81C C101U] | -0.199
GACCAAUCUGCCCUCAGAGCUCGAGAACAUCUUCGGAUGCAGAGGAGGCAGGCUUCGGUGGUGCGAUAGCGCCAACGUCCGCUACCUCUAAUGCAUCCCACCACAUGAUGAUGCCUUAAGAGCCUUGGUUUUUUG [C62U U81G A83U C89U G117U] | -5.98
GACCAAUCUGCCCUCAGAGCUCGAGAACAUCUUCGGAUGCAGAGGAGGCAGGCUUCGGUGGUGCGAUAGCGCCAACGUCCUCAACCACCAAUGCAUCCCACCACAUGAUGAUGCCUGAAGUGCCUUGGUUUUUUG [C62U U87A A121U] | 2.07
GACCAAUCUGCCCUCAGAGCUCGAGAACAUCUUCGGAUGCAGAGGAGGCAGGCUUCGGUGGUGCGAUAGCGCCAACGUCCUCAACCUCCAAAGCAUCCCACCACAUGAUGAUGCCUGAAGAGCCUUGGUUUUUUG [C62U U92A] | -3.44
GACCAAUCUGCCCUCAGAGCUCGAGAACAUCUUCGGAUGCAGAGGAGGCAGGCUUCGGUGGUGCGAUAGCGCCAACGUCCUCAACCUCCAAGGCAUCCCACCACAUGAUGAUGCCUGAAGAGCCUUGGUUUUUUG [C62U U92G] | -2.9
GACCAAUCUGCCCUCAGAGCUCGAGAACAUCUUCGGAUGCAGAGGAGGCAGGCUUCGGUGGUGCGAUAGCGCCAACGUCCUCAACCUCCAAUGCAUCCCACCACAAGAUGAUGCCUGAAUAGCGUUGGUUUUUUG [C62U U106A G120U C124G] | 1.54
GACCAAUCUGCCCUCAGAGCUCGAGAACAUCUUCGGAUGCAGAGGAGGCAGGCUUCGGUGGUGCGAUAGCGCCAACGUCCUCAACCUCCAAUGCAUCCCACCACACGAUGAUGCCUGAAGAGCCUUGGUUUUUUG [C62U U106C] | -0.141
GACCAAUCUGCCCUCAGAGCUCGAGAACAUCUUCGGAUGCAGAGGAGGCAGGCUUCGGUGGUGCGAUAGCGCCAACGUCCUCAACCUCCAAUGCAUCCCACCACAGGAUGAUGCCUGAAGUUCCUUGGUUUUUUG [C62U U106G A121U G122U] | -1.15
